This assay deals with T1, Amylin 3(a) receptor (human calcitonin receptor (CTa) with RAMP-3) (human, UniProt P30988 25-474; O60896 24-148, limits assumed).
T1 sequence (looked up) 1: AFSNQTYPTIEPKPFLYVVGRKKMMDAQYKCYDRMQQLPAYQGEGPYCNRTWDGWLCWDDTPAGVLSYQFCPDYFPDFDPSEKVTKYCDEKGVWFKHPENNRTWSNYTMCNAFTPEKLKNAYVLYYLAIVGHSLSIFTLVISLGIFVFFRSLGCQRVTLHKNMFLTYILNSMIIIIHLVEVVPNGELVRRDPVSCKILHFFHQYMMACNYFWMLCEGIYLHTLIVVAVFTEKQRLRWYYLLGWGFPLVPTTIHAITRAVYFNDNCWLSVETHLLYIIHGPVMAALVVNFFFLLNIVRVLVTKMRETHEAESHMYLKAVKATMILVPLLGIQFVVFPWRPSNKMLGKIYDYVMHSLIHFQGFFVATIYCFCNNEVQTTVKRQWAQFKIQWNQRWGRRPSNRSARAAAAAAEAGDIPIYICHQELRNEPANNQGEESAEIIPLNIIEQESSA
T1 sequence (looked up) 2: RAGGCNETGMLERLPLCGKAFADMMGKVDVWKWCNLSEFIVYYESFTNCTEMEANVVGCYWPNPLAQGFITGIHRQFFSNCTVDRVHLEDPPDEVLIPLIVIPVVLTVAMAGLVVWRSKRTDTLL
The assay is described as follows: cell-based or functional assay.

Experimental findings from patent US20110105394A1 (Novo Nordisk, published 2011) are described below.

*1 amine or outer side, *2 acyl side, *3 side chain or, on linkers, in order; H or OH if unused. Bridges are numbered along the chain shown (N, C = ends). Where no end group is shown, it is not given here. Side-chain parts run from the residue outwards. The star is where a group is joined. X2 = (S)‑4‑Carboxy‑4‑(19-carboxynonadecanoylamino)butyryl, O=C(O)CCCCCCCCCCCCCCCCCCC(=O)N[C@@H](CCC(=O)*)C(=O)O; C20 diacid = O=C(O)CCCCCCCCCCCCCCCCCCC(=O)*; γGlu = O=C(O)[C@H](CCC(=O)[*:2])N[*:1]; AEEA = NCCOCCOCC(=O)O

Take {C20 diacid-4‑aminobutyryl}-RKCNTATCATQRLANFLRHSSNNFGPILPPTNVGSNTY-NH2 (disulfide 3-8) [N-alpha-[4-(19-Carboxynonadecanoylamino)butyryl]-Arg-[Arg17]-pramlintide]: the “Potency Luciferase” value was found to be 0.03 nM.

B1: N-alpha-[(S)-4-Carboxy-4-(19-carboxynonadecanoylamino)butyryl]-Arg-[Ala17]-pramlintide (peptide)
peptide: X2-RKCNTATCATQRLANFLAHSSNNFGPILPPTNVGSNTY-NH2
modifications: disulfide 3-8
SMILES: CC[C@H](C)[C@H](NC(=O)[C@@H]1CCCN1C(=O)CNC(=O)[C@H](Cc1ccccc1)NC(=O)[C@H](CC(N)=O)NC(=O)[C@H](CC(N)=O)NC(=O)[C@H](CO)NC(=O)[C@H](CO)NC(=O)[C@H](Cc1c[nH]cn1)NC(=O)[C@H](C)NC(=O)[C@H](CC(C)C)NC(=O)[C@H](Cc1ccccc1)NC(=O)[C@H](CC(N)=O)NC(=O)[C@H](C)NC(=O)[C@H](CC(C)C)NC(=O)[C@H](CCCNC(=N)N)NC(=O)[C@H](CCC(N)=O)NC(=O)[C@@H](NC(=O)[C@H](C)NC(=O)[C@@H]1CSSC[C@H](NC(=O)[C@H](CCCCN)NC(=O)[C@H](CCCNC(=N)N)NC(=O)CC[C@H](NC(=O)CCCCCCCCCCCCCCCCCCC(=O)O)C(=O)O)C(=O)N[C@@H](CC(N)=O)C(=O)N[C@@H]([C@@H](C)O)C(=O)N[C@@H](C)C(=O)N[C@@H]([C@@H](C)O)C(=O)N1)[C@@H](C)O)C(=O)N[C@@H](CC(C)C)C(=O)N1CCC[C@H]1C(=O)N1CCC[C@H]1C(=O)N[C@H](C(=O)N[C@@H](CC(N)=O)C(=O)N[C@H](C(=O)NCC(=O)N[C@@H](CO)C(=O)N[C@@H](CC(N)=O)C(=O)N[C@H](C(=O)N[C@@H](Cc1ccc(O)cc1)C(N)=O)[C@@H](C)O)C(C)C)[C@@H](C)O
In the case of B1, the “Potency Luciferase” value worked out at 0.1 nM.

B2: N-alpha-[(S)-4-Carboxy-4-(19-carboxynonadecanoylamino)butyryl]-Arg-[Pro17]-pramlintide (peptide)
peptide: X2-RKCNTATCATQRLANFLPHSSNNFGPILPPTNVGSNTY-NH2
modifications: disulfide 3-8
SMILES: CC[C@H](C)[C@H](NC(=O)[C@@H]1CCCN1C(=O)CNC(=O)[C@H](Cc1ccccc1)NC(=O)[C@H](CC(N)=O)NC(=O)[C@H](CC(N)=O)NC(=O)[C@H](CO)NC(=O)[C@H](CO)NC(=O)[C@H](Cc1c[nH]cn1)NC(=O)[C@@H]1CCCN1C(=O)[C@H](CC(C)C)NC(=O)[C@H](Cc1ccccc1)NC(=O)[C@H](CC(N)=O)NC(=O)[C@H](C)NC(=O)[C@H](CC(C)C)NC(=O)[C@H](CCCNC(=N)N)NC(=O)[C@H](CCC(N)=O)NC(=O)[C@@H](NC(=O)[C@H](C)NC(=O)[C@@H]1CSSC[C@H](NC(=O)[C@H](CCCCN)NC(=O)[C@H](CCCNC(=N)N)NC(=O)CC[C@H](NC(=O)CCCCCCCCCCCCCCCCCCC(=O)O)C(=O)O)C(=O)N[C@@H](CC(N)=O)C(=O)N[C@@H]([C@@H](C)O)C(=O)N[C@@H](C)C(=O)N[C@@H]([C@@H](C)O)C(=O)N1)[C@@H](C)O)C(=O)N[C@@H](CC(C)C)C(=O)N1CCC[C@H]1C(=O)N1CCC[C@H]1C(=O)N[C@H](C(=O)N[C@@H](CC(N)=O)C(=O)N[C@H](C(=O)NCC(=O)N[C@@H](CO)C(=O)N[C@@H](CC(N)=O)C(=O)N[C@H](C(=O)N[C@@H](Cc1ccc(O)cc1)C(N)=O)[C@@H](C)O)C(C)C)[C@@H](C)O
Turning to B2, the “Potency Luciferase” value came to 2 nM.

B3: N-alpha-[2-(2-{2-[4-(S)-Carboxy-4-(19-carboxynonadecanoylamino)butyrylamino]ethoxy}ethoxy)acetyl]-Arg-[Ala17]-pramlintide (peptide)
peptide: {C20 diacid-γGlu-AEEA}-RKCNTATCATQRLANFLAHSSNNFGPILPPTNVGSNTY-NH2
modifications: disulfide 3-8
SMILES: CC[C@H](C)[C@H](NC(=O)[C@@H]1CCCN1C(=O)CNC(=O)[C@H](Cc1ccccc1)NC(=O)[C@H](CC(N)=O)NC(=O)[C@H](CC(N)=O)NC(=O)[C@H](CO)NC(=O)[C@H](CO)NC(=O)[C@H](Cc1c[nH]cn1)NC(=O)[C@H](C)NC(=O)[C@H](CC(C)C)NC(=O)[C@H](Cc1ccccc1)NC(=O)[C@H](CC(N)=O)NC(=O)[C@H](C)NC(=O)[C@H](CC(C)C)NC(=O)[C@H](CCCNC(=N)N)NC(=O)[C@H](CCC(N)=O)NC(=O)[C@@H](NC(=O)[C@H](C)NC(=O)[C@@H]1CSSC[C@H](NC(=O)[C@H](CCCCN)NC(=O)[C@H](CCCNC(=N)N)NC(=O)COCCOCCNC(=O)CC[C@H](NC(=O)CCCCCCCCCCCCCCCCCCC(=O)O)C(=O)O)C(=O)N[C@@H](CC(N)=O)C(=O)N[C@@H]([C@@H](C)O)C(=O)N[C@@H](C)C(=O)N[C@@H]([C@@H](C)O)C(=O)N1)[C@@H](C)O)C(=O)N[C@@H](CC(C)C)C(=O)N1CCC[C@H]1C(=O)N1CCC[C@H]1C(=O)N[C@H](C(=O)N[C@@H](CC(N)=O)C(=O)N[C@H](C(=O)NCC(=O)N[C@@H](CO)C(=O)N[C@@H](CC(N)=O)C(=O)N[C@H](C(=O)N[C@@H](Cc1ccc(O)cc1)C(N)=O)[C@@H](C)O)C(C)C)[C@@H](C)O
As to B3, the “Potency Luciferase” value turned out to be 0.08 nM.

B4: N-alpha-[(S)-4-Carboxy-4-(19-carboxynonadecanoylamino)butyryl]-Arg-[Ser17]-pramlintide (peptide)
peptide: X2-RKCNTATCATQRLANFLSHSSNNFGPILPPTNVGSNTY-NH2
modifications: disulfide 3-8
SMILES: CC[C@H](C)[C@H](NC(=O)[C@@H]1CCCN1C(=O)CNC(=O)[C@H](Cc1ccccc1)NC(=O)[C@H](CC(N)=O)NC(=O)[C@H](CC(N)=O)NC(=O)[C@H](CO)NC(=O)[C@H](CO)NC(=O)[C@H](Cc1c[nH]cn1)NC(=O)[C@H](CO)NC(=O)[C@H](CC(C)C)NC(=O)[C@H](Cc1ccccc1)NC(=O)[C@H](CC(N)=O)NC(=O)[C@H](C)NC(=O)[C@H](CC(C)C)NC(=O)[C@H](CCCNC(=N)N)NC(=O)[C@H](CCC(N)=O)NC(=O)[C@@H](NC(=O)[C@H](C)NC(=O)[C@@H]1CSSC[C@H](NC(=O)[C@H](CCCCN)NC(=O)[C@H](CCCNC(=N)N)NC(=O)CC[C@H](NC(=O)CCCCCCCCCCCCCCCCCCC(=O)O)C(=O)O)C(=O)N[C@@H](CC(N)=O)C(=O)N[C@@H]([C@@H](C)O)C(=O)N[C@@H](C)C(=O)N[C@@H]([C@@H](C)O)C(=O)N1)[C@@H](C)O)C(=O)N[C@@H](CC(C)C)C(=O)N1CCC[C@H]1C(=O)N1CCC[C@H]1C(=O)N[C@H](C(=O)N[C@@H](CC(N)=O)C(=O)N[C@H](C(=O)NCC(=O)N[C@@H](CO)C(=O)N[C@@H](CC(N)=O)C(=O)N[C@H](C(=O)N[C@@H](Cc1ccc(O)cc1)C(N)=O)[C@@H](C)O)C(C)C)[C@@H](C)O
Take B4: the “Potency Luciferase” value worked out at 0.1 nM.

B5: N-alpha-[(S)-4-Carboxy-4-(19-carboxynonadecanoylamino)butyryl]-Arg-[Arg17]-pramlintide (peptide)
peptide: X2-RKCNTATCATQRLANFLRHSSNNFGPILPPTNVGSNTY-NH2
modifications: disulfide 3-8
SMILES: CC[C@H](C)[C@H](NC(=O)[C@@H]1CCCN1C(=O)CNC(=O)[C@H](Cc1ccccc1)NC(=O)[C@H](CC(N)=O)NC(=O)[C@H](CC(N)=O)NC(=O)[C@H](CO)NC(=O)[C@H](CO)NC(=O)[C@H](Cc1c[nH]cn1)NC(=O)[C@H](CCCNC(=N)N)NC(=O)[C@H](CC(C)C)NC(=O)[C@H](Cc1ccccc1)NC(=O)[C@H](CC(N)=O)NC(=O)[C@H](C)NC(=O)[C@H](CC(C)C)NC(=O)[C@H](CCCNC(=N)N)NC(=O)[C@H](CCC(N)=O)NC(=O)[C@@H](NC(=O)[C@H](C)NC(=O)[C@@H]1CSSC[C@H](NC(=O)[C@H](CCCCN)NC(=O)[C@H](CCCNC(=N)N)NC(=O)CC[C@H](NC(=O)CCCCCCCCCCCCCCCCCCC(=O)O)C(=O)O)C(=O)N[C@@H](CC(N)=O)C(=O)N[C@@H]([C@@H](C)O)C(=O)N[C@@H](C)C(=O)N[C@@H]([C@@H](C)O)C(=O)N1)[C@@H](C)O)C(=O)N[C@@H](CC(C)C)C(=O)N1CCC[C@H]1C(=O)N1CCC[C@H]1C(=O)N[C@H](C(=O)N[C@@H](CC(N)=O)C(=O)N[C@H](C(=O)NCC(=O)N[C@@H](CO)C(=O)N[C@@H](CC(N)=O)C(=O)N[C@H](C(=O)N[C@@H](Cc1ccc(O)cc1)C(N)=O)[C@@H](C)O)C(C)C)[C@@H](C)O
As for B5, the “Potency Luciferase” value stood at 0.1 nM.

B6: N-alpha-[2-(2-{2-[4-(S)-Carboxy-4-(19-carboxynonadecanoylamino)butyrylamino]ethoxy}ethoxy)acetyl]-Arg-[Arg17]-pramlintide (peptide)
peptide: {C20 diacid-γGlu-AEEA}-RKCNTATCATQRLANFLRHSSNNFGPILPPTNVGSNTY-NH2
modifications: disulfide 3-8
SMILES: CC[C@H](C)[C@H](NC(=O)[C@@H]1CCCN1C(=O)CNC(=O)[C@H](Cc1ccccc1)NC(=O)[C@H](CC(N)=O)NC(=O)[C@H](CC(N)=O)NC(=O)[C@H](CO)NC(=O)[C@H](CO)NC(=O)[C@H](Cc1c[nH]cn1)NC(=O)[C@H](CCCNC(=N)N)NC(=O)[C@H](CC(C)C)NC(=O)[C@H](Cc1ccccc1)NC(=O)[C@H](CC(N)=O)NC(=O)[C@H](C)NC(=O)[C@H](CC(C)C)NC(=O)[C@H](CCCNC(=N)N)NC(=O)[C@H](CCC(N)=O)NC(=O)[C@@H](NC(=O)[C@H](C)NC(=O)[C@@H]1CSSC[C@H](NC(=O)[C@H](CCCCN)NC(=O)[C@H](CCCNC(=N)N)NC(=O)COCCOCCNC(=O)CC[C@H](NC(=O)CCCCCCCCCCCCCCCCCCC(=O)O)C(=O)O)C(=O)N[C@@H](CC(N)=O)C(=O)N[C@@H]([C@@H](C)O)C(=O)N[C@@H](C)C(=O)N[C@@H]([C@@H](C)O)C(=O)N1)[C@@H](C)O)C(=O)N[C@@H](CC(C)C)C(=O)N1CCC[C@H]1C(=O)N1CCC[C@H]1C(=O)N[C@H](C(=O)N[C@@H](CC(N)=O)C(=O)N[C@H](C(=O)NCC(=O)N[C@@H](CO)C(=O)N[C@@H](CC(N)=O)C(=O)N[C@H](C(=O)N[C@@H](Cc1ccc(O)cc1)C(N)=O)[C@@H](C)O)C(C)C)[C@@H](C)O
For the molecule B6, the “Potency Luciferase” value amounted to 0.1 nM.
The same measure for KCK([Glu-Arg-Glu-Glu-C20 diacid])TATCATQRLANFLHHSSDNFGPILPPTNVGSNTY-NH2 (disulfide 2-7) [N-epsilon3-(19-carboxynonadecanoyl-Glu-Glu-Arg-Glu)-[Lys3,His17,Asp21]-pramlintide]: 0.9 nM.
